Measured values published in PMC5041479.
Like-named read-outs stand apart in the source and are kept apart here.

T1: Pif1p (yeast, UniProt P07271 40-859)
T1 sequence: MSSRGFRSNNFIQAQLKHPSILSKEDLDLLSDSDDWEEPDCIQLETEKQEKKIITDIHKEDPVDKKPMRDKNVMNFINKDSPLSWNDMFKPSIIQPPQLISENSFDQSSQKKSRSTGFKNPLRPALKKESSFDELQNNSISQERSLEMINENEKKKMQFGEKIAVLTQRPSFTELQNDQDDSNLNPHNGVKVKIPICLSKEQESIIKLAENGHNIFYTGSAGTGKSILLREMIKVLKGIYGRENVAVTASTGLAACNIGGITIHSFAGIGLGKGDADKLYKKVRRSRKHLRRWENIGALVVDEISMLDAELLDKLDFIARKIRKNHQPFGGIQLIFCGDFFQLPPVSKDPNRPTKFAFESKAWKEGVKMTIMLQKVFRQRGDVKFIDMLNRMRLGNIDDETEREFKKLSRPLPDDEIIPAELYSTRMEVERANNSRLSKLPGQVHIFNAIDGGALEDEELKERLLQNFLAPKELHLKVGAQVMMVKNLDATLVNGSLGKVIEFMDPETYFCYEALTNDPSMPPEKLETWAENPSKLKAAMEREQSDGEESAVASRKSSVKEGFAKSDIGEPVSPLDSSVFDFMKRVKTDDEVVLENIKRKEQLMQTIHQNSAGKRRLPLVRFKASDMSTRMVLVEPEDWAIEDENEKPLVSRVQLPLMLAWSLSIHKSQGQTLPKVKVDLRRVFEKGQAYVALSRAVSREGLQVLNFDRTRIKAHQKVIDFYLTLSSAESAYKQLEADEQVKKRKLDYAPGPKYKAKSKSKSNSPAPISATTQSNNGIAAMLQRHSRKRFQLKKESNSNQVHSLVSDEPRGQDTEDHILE


Experiments:
Pif1p [1] = target: T1, Pif1p; experiment: fluorescence anisotropy
Pif1p [2] = target: T1, Pif1p; experiment: fluorescence anisotropy; remark: listed apart in the source

Binder	Kd (Pif1p [1])	Kd (Pif1p [2])
GTGTGTGTGGTG (ssDNA) [FAM-GR12]	8.7 nM	–
TTTTTTTTTTTT (ssDNA) [FAM-T12]	–	25.2 nM
